± gives the uncertainty stated by the source.
Assay: self-splicing fitness, log relative to wild type (ln ratio); higher = more splicing; Tetrahymena group I intron in knt gene, E. coli kanamycin selection, DiMSum; sequences stand for … in CUCUCU…GGAGGGAAAAGUUAUCAGGCAUGCACCUGGUAGCUAGUCUUUAAACCAAUAGAUUGCAUCGGUUUAAAAGGCAAGACCGUCAAAUUGCGGGAAAGGGGUCAACAGCCGUUCAGUACCAAGUCUCAGGGGAAACUUUGAGAUGGCCUUGCAAAGGGUAUGGUAAUAAGCUGACGGACAUGGUCCUAACCACGCAGCCAAGUCCUAAGUCAACAGAUCUUCUGUUGAUAUGGAUGCAGUUCACAGACUAAAUGUCGGUCGGGGAAGAUGUAUUCUUCUCAUAAGAUAUAGUCGGACCUCUCCUUAAUGGGAGCUAGCGGAUGAAGUGAUGCAACACUGGAGCCGCUGGGAACUAAUUUGUAUGCGAAAGUAUAUUGAUUAGUUUUGGAGUACUCGUGGUCG
Summary of the method: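 Library with all eight P1ex-region intron nucleotides randomised, intron inside the knt kanamycin-resistance gene on pET-22b(+), in E. coli BL21(DE3). Cells grew overnight at 37°C or 30°C on LB agar with or without 25 μg/mL kanamycin (plus 100 μg/mL carbenicillin, 50 μM IPTG, 0.2% rhamnose), in six replicate transformations. Pooled colonies were amplicon-sequenced on Illumina HiSeq 2500. DiMSum fitness is the error-weighted combination of wild-type-normalised replicate fold changes, kanamycin versus none.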

Row | Sequence | self-splicing fitness (ln) (37 °C) | self-splicing fitness (ln) (30 °C)
1 | GCUGAGCAAUAUUACGGAGU | -2.38 ± 0.31 | 
2 | GCUGAGCAAUAUUACGGCAU | -1.82 ± 0.18 | -2.59 ± 0.2
3 | GCUGAGCAAUAUUACGGCCC | -2.32 ± 0.35 | 
4 | GCUGAGCAAUAUUACGGCGU | 0.234 ± 0.15 | -0.642 ± 0.14
5 | GCUGAGCAAUAUUACGGUUG | -2.67 ± 0.35 | -3.64 ± 0.31
6 | GCUGAGCAAUAUUACGUAAC | -1.6 ± 0.36 | -2.3 ± 0.24
7 | GCUGAGCAAUAUUACGUACC | -0.328 ± 0.18 | -1.54 ± 0.13
8 | GCUGAGCAAUAUUACGUCCU | -1.06 ± 0.2 | -1.52 ± 0.15
9 | GCUGAGCAAUAUUACGUCGC | -2.17 ± 0.24 | -2.96 ± 0.26
10 | GCUGAGCAAUAUUACGUCGG | -1.27 ± 0.41 | 
11 | GCUGAGCAAUAUUACGUGAA | -1.35 ± 0.23 | -2.63 ± 0.22
12 | GCUGAGCAAUAUUACGUUAA | -2.78 ± 0.32 | -3.04 ± 0.34
13 | GCUGAGCAAUAUUACGUUCA | -1.81 ± 0.2 | -3.45 ± 0.28
14 | GCUUAGCAAUAUUACGACCC | -0.569 ± 0.38 | -0.525 ± 0.22
15 | GCUUAGCAAUAUUACGACGA | -0.516 ± 0.13 | -0.927 ± 0.16
16 | GCUUAGCAAUAUUACGACUC | 0.619 ± 0.18 | -0.244 ± 0.15
17 | GCUUAGCAAUAUUACGAGAA | -0.264 ± 0.22 | -1.2 ± 0.27
18 | GCUUAGCAAUAUUACGAGAC | -1.54 ± 0.18 | -2.64 ± 0.22
19 | GCUUAGCAAUAUUACGAUCA | -0.788 ± 0.16 | -1.1 ± 0.14
20 | GCUUAGCAAUAUUACGAUUU | -0.234 ± 0.12 | -0.0141 ± 0.091

Row | Sequence | self-splicing fitness (ln) (37 °C) | self-splicing fitness (ln) (30 °C)
21 | GCUUAGCAAUAUUACGCGGC | -2.19 ± 0.37 | -2.35 ± 0.29
22 | GCUUAGCAAUAUUACGCUAA | -3.01 ± 0.26 | -2.91 ± 0.21
23 | GCUUAGCAAUAUUACGCUAC | -3.24 ± 0.28 | 
24 | GCUUAGCAAUAUUACGCUAU | -1.38 ± 0.16 | -2.31 ± 0.16
25 | GCUUAGCAAUAUUACGCUUG | -1.74 ± 0.36 | -2.53 ± 0.27
26 | GCUUAGCAAUAUUACGCUUU | -0.413 ± 0.084 | -1.23 ± 0.064
27 | GCUUAGCAAUAUUACGGAAU | 0.0941 ± 0.077 | -1.15 ± 0.062
28 | GCUUAGCAAUAUUACGGACG | 0.122 ± 0.18 | -1.15 ± 0.13
29 | GCUUAGCAAUAUUACGGCUU | -0.586 ± 0.11 | -0.91 ± 0.089
30 | GCUUAGCAAUAUUACGGGAC | -1.19 ± 0.2 | -1.78 ± 0.18
31 | GCUUAGCAAUAUUACGUACA | -0.577 ± 0.14 | -1.38 ± 0.13
32 | GCUUAGCAAUAUUACGUCCU | -0.274 ± 0.15 | -1.01 ± 0.12
33 | GCUUAGCAAUAUUACGUCGC | -0.764 ± 0.28 | -1.72 ± 0.19
34 | GCUUAGCAAUAUUACGUGAU | -0.482 ± 0.068 | -0.4 ± 0.065
35 | GGAAAGCAAUAUUACGAACA | -0.362 ± 0.15 | -1.34 ± 0.15
36 | GGAAAGCAAUAUUACGAACG | -0.441 ± 0.12 | -0.51 ± 0.1
37 | GGAAAGCAAUAUUACGACCG | -0.184 ± 0.17 | -0.761 ± 0.12
38 | GGAAAGCAAUAUUACGAGAC | -1.96 ± 0.11 | -3.69 ± 0.17
39 | GGAAAGCAAUAUUACGAGUA | -0.9 ± 0.19 | -2.38 ± 0.22

Source: the supplement of paper PMC7877785
